For one substance, stoichiometry N results are on record in publication PMC10987364.

For test [1], the target named is L-rhamnose isomerase (L-RIM) (Chloroflexus sp. origin (hot spring metagenome)). The test can be described thus: native gel or EMSA; 10% Native PAGE of purified L-RIM, Coomassie stained; native mass against a marker. In general terms: In EMSA bound probe runs differently from free probe, usually more slowly.
For test [2] the target is unchanged. The test can be described thus: SEC; Superdex 200 increase 10/300 GL, 50 mM Tris-Cl pH 7.0, 150 mM NaCl, 0.5 mL/min; calibrated with ovalbumin, conalbumin, aldolase and ferritin. Background: Size exclusion chromatography separates by hydrodynamic size, large species first.

Usually stoichiometry N stands for the number of molecules, sites or subunits per partner or assembly.

Consider L-rhamnose isomerase (L-RIM) (enzyme), for which the stoichiometry N in test [1] and in test [2] was 4 each time.
